Results as given in US20100291638.

How the values were obtained:
Conditions in all cases: dNTP incorporation; background <500
[1] = test system: T1, DNA polymerase clone 1160 (uncultured hot spring virus (Great Boiling Spring))
T1 sequence: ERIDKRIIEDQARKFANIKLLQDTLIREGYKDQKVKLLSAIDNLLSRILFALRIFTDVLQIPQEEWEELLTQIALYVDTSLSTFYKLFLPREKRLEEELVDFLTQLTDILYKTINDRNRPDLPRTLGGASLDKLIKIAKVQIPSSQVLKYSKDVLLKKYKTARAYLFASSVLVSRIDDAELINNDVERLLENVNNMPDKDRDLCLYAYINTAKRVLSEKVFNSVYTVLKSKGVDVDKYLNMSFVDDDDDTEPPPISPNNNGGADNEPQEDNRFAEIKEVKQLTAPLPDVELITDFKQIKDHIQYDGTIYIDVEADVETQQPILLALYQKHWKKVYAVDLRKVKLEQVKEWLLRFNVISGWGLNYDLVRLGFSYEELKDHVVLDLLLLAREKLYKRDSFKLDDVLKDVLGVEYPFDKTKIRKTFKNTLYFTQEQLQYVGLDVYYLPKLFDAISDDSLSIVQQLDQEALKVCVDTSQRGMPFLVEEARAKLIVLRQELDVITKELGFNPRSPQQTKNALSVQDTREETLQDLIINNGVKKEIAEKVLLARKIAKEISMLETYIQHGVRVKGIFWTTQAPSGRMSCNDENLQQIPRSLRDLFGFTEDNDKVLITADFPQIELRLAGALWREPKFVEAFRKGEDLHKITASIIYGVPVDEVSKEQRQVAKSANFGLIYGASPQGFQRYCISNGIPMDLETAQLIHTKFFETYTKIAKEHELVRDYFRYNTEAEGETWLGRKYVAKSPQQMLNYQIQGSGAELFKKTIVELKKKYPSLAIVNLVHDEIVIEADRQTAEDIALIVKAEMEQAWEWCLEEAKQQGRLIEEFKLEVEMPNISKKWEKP

[2] = test system: T2, DNA polymerase clone 1753 (uncultured hot spring virus (Great Boiling Spring))
T2 sequence: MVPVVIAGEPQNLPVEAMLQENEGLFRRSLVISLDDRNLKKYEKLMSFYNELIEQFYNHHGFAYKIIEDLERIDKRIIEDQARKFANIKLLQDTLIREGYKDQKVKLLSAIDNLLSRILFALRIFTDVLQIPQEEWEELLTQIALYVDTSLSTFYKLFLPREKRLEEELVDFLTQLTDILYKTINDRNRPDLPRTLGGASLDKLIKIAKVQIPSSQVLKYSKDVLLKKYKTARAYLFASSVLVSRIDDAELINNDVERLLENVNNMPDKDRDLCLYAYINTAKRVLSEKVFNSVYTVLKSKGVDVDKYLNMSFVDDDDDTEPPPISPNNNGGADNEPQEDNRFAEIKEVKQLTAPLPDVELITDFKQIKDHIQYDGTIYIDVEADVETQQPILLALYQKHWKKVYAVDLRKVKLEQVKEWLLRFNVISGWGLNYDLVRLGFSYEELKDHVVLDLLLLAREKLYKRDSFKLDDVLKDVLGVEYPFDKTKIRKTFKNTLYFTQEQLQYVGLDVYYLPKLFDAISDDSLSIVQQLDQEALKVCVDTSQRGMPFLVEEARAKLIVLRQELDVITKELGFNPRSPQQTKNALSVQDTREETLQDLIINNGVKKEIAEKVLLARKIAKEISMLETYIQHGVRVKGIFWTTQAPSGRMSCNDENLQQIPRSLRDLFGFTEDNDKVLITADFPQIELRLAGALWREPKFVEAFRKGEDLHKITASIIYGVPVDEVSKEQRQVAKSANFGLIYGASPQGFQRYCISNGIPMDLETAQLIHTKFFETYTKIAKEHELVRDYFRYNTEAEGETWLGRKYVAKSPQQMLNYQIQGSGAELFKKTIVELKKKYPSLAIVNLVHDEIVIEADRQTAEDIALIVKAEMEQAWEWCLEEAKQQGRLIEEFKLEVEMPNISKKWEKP

[3] = test system: T3, DNA polymerase clone 1773 (uncultured hot spring virus (Great Boiling Spring))
T3 sequence: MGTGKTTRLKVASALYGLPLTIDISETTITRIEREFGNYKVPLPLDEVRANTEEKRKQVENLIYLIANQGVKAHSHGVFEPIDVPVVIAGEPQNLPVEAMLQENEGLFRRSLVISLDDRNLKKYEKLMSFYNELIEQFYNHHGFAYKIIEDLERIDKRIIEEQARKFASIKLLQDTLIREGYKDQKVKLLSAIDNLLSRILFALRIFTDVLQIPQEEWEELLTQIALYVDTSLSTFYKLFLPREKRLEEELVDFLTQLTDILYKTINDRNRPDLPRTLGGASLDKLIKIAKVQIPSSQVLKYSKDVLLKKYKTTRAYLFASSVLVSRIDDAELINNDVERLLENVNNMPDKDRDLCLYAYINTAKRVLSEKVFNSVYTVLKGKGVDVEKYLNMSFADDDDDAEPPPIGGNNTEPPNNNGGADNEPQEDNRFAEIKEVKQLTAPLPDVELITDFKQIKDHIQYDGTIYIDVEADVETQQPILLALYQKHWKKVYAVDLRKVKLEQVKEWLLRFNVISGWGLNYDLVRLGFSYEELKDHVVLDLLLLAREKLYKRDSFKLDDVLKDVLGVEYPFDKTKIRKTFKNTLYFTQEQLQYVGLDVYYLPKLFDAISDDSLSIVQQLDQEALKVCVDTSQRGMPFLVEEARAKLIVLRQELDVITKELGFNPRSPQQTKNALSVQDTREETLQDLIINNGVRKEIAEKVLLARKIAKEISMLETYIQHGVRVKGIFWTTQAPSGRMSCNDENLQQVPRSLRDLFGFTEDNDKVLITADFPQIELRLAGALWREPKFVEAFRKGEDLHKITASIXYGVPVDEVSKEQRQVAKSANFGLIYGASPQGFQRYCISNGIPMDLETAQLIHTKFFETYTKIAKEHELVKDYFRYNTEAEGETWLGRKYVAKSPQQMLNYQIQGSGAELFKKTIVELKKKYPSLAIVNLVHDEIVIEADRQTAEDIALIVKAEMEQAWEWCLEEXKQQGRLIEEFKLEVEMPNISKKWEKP

**Q.** For activated calf thymus DNA, which activity [1] is on record?
**A.** Its activity is 139000 cpm.

**Q.** What about the activity [2] of the same substance?
**A.** The activity was 141000 cpm.

**Q.** And the activity [3]?
**A.** The activity was 124000 cpm.
